In this assay the target is recombinant full-length H7 hemagglutinin of A/Anhui/1/2013 (H7N9) influenza virus (influenza A virus A/Anhui/1/2013 (H7N9)). Nature of the assay: […]; 500 ug/ml in PBS, […].

One substance from paper PMC4895014 can be followed below.

Several values for one entry are separate records, joined by “and”; a condition that tells them apart may be missing. Identical values can stand only once.

In the case of “recombinant full-length H7 hemagglutinin of A/Anhui/1/2013 (H7N9) influenza virus (natural protein)”, the stoichiometry N (units (HA molecules per complex)) was 6 and 7 and 8.
